Data on three molecules can be found in publication PMC12549896, “Structural basis for antibiotic resistance by chloramphenicol acetyltransferase type A in Staphylococcus aureus” (Scientific Reports, 2025).

The subject of data set [1] is O=C(N[C@H](CO)[C@H](O)c1ccc([N+](=O)[O-])cc1)C(Cl)Cl. In words: purified protein. The format is biochemical, Staphylococcus aureus. The note with it: acetyl-CoA ([…] in assay) docked only: inter-protomer pocket; Ser140, Ser142, Tyr20, Thr25, catalytic His189.
For data set [2], the target named is T1, saCAT1 (chloramphenicol acetyltransferase type A, S. aureus) (Staphylococcus aureus, UniProt P00485).
T1 construct: gene cat; residues 1-216; four amino acids (GSLE) remain at the N-terminus after thrombin cleavage; homotrimer
Nature of the data set: DTNB colorimetric acetyltransferase assay at […] nm, FA […], at […] chloramphenicol. Type of data set: biochemical.

Data set [3] concerns the molecule itself. In words: crystal structure; X-ray, space group P321, 1.8 Å; hanging drop at 16 °C, 0.01 M cobalt (II) chloride, 0.1 M sodium acetate pH 4.6, 1 M 1,6-hexanediol; trimer on the crystallographic 3-fold axis, interfaces analysed with PISA.

In general, Km refers to the substrate concentration at which the rate is half of its maximum. On to “saCAT1 (chloramphenicol acetyltransferase type A, S. aureus) (Staphylococcus aureus)”, for which the Km in data set [1] is recorded as 16.9 ± 3.0 µM.

As a reminder, the Ki is the equilibrium dissociation constant of an inhibitor or competing ligand from its target. A lower Ki goes with a stronger hold on the target. `CC(=O)O[C@H]1C[C@@]2(C)[C@@H](C[C@@H](O)[C@H]3[C@@]4(C)CC[C@@H](O)[C@@H](C)[C@@H]4CC[C@@]32C)/C1=C(\CCC=C(C)C)C(=O)O` [FA, fusidic acid] yielded a Ki in data set [2] of 83.7 µM.

B1: Staphylococcus aureus chloramphenicol acetyltransferase 1 (saCAT1) (enzyme)
chain: GSLEMNFNKIDLDNWKRKEIFNHYLNQQTTFSITTEIDISVLYRNIKQEGYKFYPAFIFLVTRVINSNTAFRTGYNSDGELGYWDKLEPLYTIFDGVSKTFSGIWTPVKNDFKEFYDLYLSDVEKYNGSGKLFPKTPIPENAFSLSIIPWTSFTGFNLNINNNSNYLLPIITAGKFINKGNSIYLPLSLQVHHSVCDGYHAGLFMNSIQELSDRPNDWLL
notes: four amino acids that remain at the N-terminus after thrombin cleavage of the His tag; chloramphenicol acetyltransferase encoded by the cat1 gene of Staphylococcus aureus plasmid pC194; all residues (1-216) modelled in the crystal structure; Cloned into the vector pFs91G (N-terminal 6xHis tag and thrombin site); Homotrimer in solution and in the crystal; one protomer in the asymmetric unit, the …
Usually stoichiometry N stands for a count of units in the complex or per binding partner. As to B1, the “stoichiometry N” value in data set [3] came out at 3.
